Assay [1] concerns the target CbpE-Jo (S. pneumoniae). The experiment in a line: confocal fluorescence microscopy of live cells; live pneumococcal cells expressing CbpE-Jo or CbpE-In incubated with exogenous His-GFP-In or PBS, extensive washes; mean maximal GFP intensity of five frames, autofluorescence subtracted.
Assay [2] concerns the target His-Jo (S. pneumoniae). Kind of assay: covalent complex formation seen by SDS-PAGE; Jo and In partners at 25 μM, pH 7, 20 °C, 60 min; proportion of complex normalised to 100%.
Assay [3] deals with His-Jo (S. pneumoniae). The experiment in a line: covalent complex formation seen by SDS-PAGE; Jo and In partners at 25 μM, pH 8, 20 °C, 60 min; proportion of complex normalised to 100%.
Assay [4] deals with His-Jo (S. pneumoniae). The experiment in a line: covalent complex formation seen by SDS-PAGE; 10 μM purified His-Jo and His-In, 50 mM Tris pH 8.0, 200 mM NaCl, 20 °C; 180 min; bands quantified with ImageJ.
The target in assay [5] is His-Jo (S. pneumoniae). Kind of assay: covalent complex formation seen by SDS-PAGE; 10 μM purified His-Jo and His-In, 50 mM Tris pH 8.0, 200 mM NaCl, 20 °C; 90 min; bands quantified with ImageJ.
The target of assay [6] is His-Jo (S. pneumoniae). Kind of assay: covalent complex formation seen by SDS-PAGE; Jo and In partners at 25 μM, pH 5, 20 °C, 60 min; proportion of complex normalised to 100%.
The target of assay [7] is His-Jo (S. pneumoniae). Kind of assay: covalent complex formation seen by SDS-PAGE; Jo and In partners at 25 μM, pH 6, 20 °C, 60 min; proportion of complex normalised to 100%.
Assay [8] addresses His-Jo (S. pneumoniae). The experiment in a line: covalent complex formation seen by SDS-PAGE; His-Jo and In co-expressed in E. coli cytoplasm (pETDuet, IPTG 3 h at 37 °C); crude lysate on denaturing SDS-PAGE, Coomassie blue.

His-GFP-In (domain or fragment) came in with a fluorescence signal of the cells (arbitrary units (AU)) in assay [1] of 550.
For the substance His-In (domain or fragment), the percent of complex reconstituted in assay [2] amounted to 100%; in assay [3], 100%; in assay [4], 100%; in assay [5] it was 60%; in assay [6], 18%; in assay [7] it was 90%.
The term stoichiometry N denotes the number of molecules, sites or subunits per partner or assembly. Substance In (domain or fragment) displayed a stoichiometry N in assay [8] of 1.

The record behind these values is paper PMC5333627.
